Source: article PMC523230, “Dictyostelium Myosin Bipolar Thick Filament Formation: Importance of Charge and Specific Domains of the Myosin Rod” (PLoS Biology, 2004)

B1: AD-Ala 2 (2xThr) (domain or fragment, Dictyostelium discoideum)
chain: MNVEFIRKKDAEIDDLRARLDRETESRIKSDEDKKNTRKQFADLEAKVEEAQREVVTIDRLKKKLESDIIDLSTQLDTETKSRIKIEKSKKKLEQTLAERRAAEEGSSKAADEEIRKQVWQEVDELRAQLDSERAALNASEKKIKSLVAEVDEVKEQLEDEILAKDKLVKAKRALEVELEEVRDQLEEEEDSRSELEDSKRRLTTEVEDIKKKYDAEVEQNTKLDEAKKKLTDDVDTLKKQLEDEKKKLNESERAKKRLESENEDFLAKLDAEVKNRSRAEKDRKKYEKDLKDTKYKLNDEAATKTQTEIGAAKLEDQIDELRSKLEQEQAKATQADKSKKTLEGEIDNLRAQIEDEGKIKMRLEKEKRALEGELEELRETVEEAEDSKSEAEQSKRLVELELEDARRNLQKEIDAKEIAEDAKSNLQREIVEAKGR
notes: N-terminal methionine added before the myosin residues; Dictyostelium myosin-II heavy chain, a.a; 1,531-1,966 (AD through Ala 2); also called headless AD-Ala2 (2xThr); source: E. coli BL21-CodonPlus (DE3)-RIL, purified (boiling, DEAE, Superdex 200, Mono Q)
B2: Ala1-Cterm (3xThr) (domain or fragment, Dictyostelium discoideum)
chain: MLDEIKRQYADVVSSRDKSVEQLKTLQAKNEELRNTAEEAEGQLDRAERSKKKAEFDLEEAVKNLEEETAKKVKAEKAMKKAETDYRSTKSELDDAKNVSSEQYVQIKRLNEELSELRSVLEEADERCNSAIKAKKTAESALESLKDEIDAANNAKAKAERKSKELEVRVAELEESLEDKSGTVNVEFIRKKDAEIDDLRARLDRETESRIKSDEDKKNTRKQFADLEAKVEEAQREVVTIDRLKKKLESDIIDLSTQLDTETKSRIKIEKSKKKLEQTLAERRAAEEGSSKAADEEIRKQVWQEVDELRAQLDSERAALNASEKKIKSLVAEVDEVKEQLEDEILAKDKLVKAKRALEVELEEVRDQLEEEEDSRSELEDSKRRLTTEVEDIKKKYDAEVEQNTKLDEAKKKLTDDVDTLKKQLEDEKKKLNESERAKKRLESENEDFLAKLDAEVKNRSRAEKDRKKYEKDLKDTKYKLNDEAATKTQTEIGAAKLEDQIDELRSKLEQEQAKATQADKSKKTLEGEIDNLRAQIEDEGKIKMRLEKEKRALEGELEELRETVEEAEDSKSEAEQSKRLVELELEDARRNLQKEIDAKEIAEDAKSNLQREIVEAKGRLEEESIARTNSDRSRKRLEAEIDALTAQVDAEQKAKNQQIKENKKIETELKEYRKKFGESEKTKTKEFLVVEKLETDYKRAKKEAADEQQQRLTVENDLRKHLSEISLLKDAIDKLQRDHDKTKRELETETASKIEMQRKMADFFGGFKA
notes: N-terminal methionine added before the myosin residues; Dictyostelium myosin-II heavy chain, a.a; 1,348-2,116 (Ala 1 through C terminus); also called headless Ala1-Cterm (3xThr); source: E. coli BL21-CodonPlus (DE3)-RIL, purified (boiling, DEAE, Superdex 200, Mono Q)
B3: extended AD (2xAsp) (protein)
chain: MNVEFIRKKDAEIDDLRARLDRETESRIKSDEDKKNTRKQFADLEAKVEEAQREVVTIDRLKKKLESDIIDLSTQLDTETKSRIKIEKSKKKLEQTLAERRAAEEGSSKAADEEIRKQVWQEVDELRAQLDSERAALNASEKKIKSLVAEVDEVKEQLEDEILAKDKLVKAKRALEVELEEVRDQLEEEEDSRSELEDSKRRLTTEVEDIKKKYDAEVEQNTKLDEAKKKLTDDVDTLKKQLEDEKKKLNESERAKKRLESENEDFLAKLDAEVKNRSRAEKDRKKYEKDLKDDKYKLNDEAADKTQTEIG
B4: extended AD (2xThr) (domain or fragment, Dictyostelium discoideum)
chain: MNVEFIRKKDAEIDDLRARLDRETESRIKSDEDKKNTRKQFADLEAKVEEAQREVVTIDRLKKKLESDIIDLSTQLDTETKSRIKIEKSKKKLEQTLAERRAAEEGSSKAADEEIRKQVWQEVDELRAQLDSERAALNASEKKIKSLVAEVDEVKEQLEDEILAKDKLVKAKRALEVELEEVRDQLEEEEDSRSELEDSKRRLTTEVEDIKKKYDAEVEQNTKLDEAKKKLTDDVDTLKKQLEDEKKKLNESERAKKRLESENEDFLAKLDAEVKNRSRAEKDRKKYEKDLKDTKYKLNDEAATKTQTEIG
notes: N-terminal methionine added before the myosin residues; Dictyostelium myosin-II heavy chain, a.a; 1,531-1,840; also called headless extended AD (2xThr); source: E. coli BL21-CodonPlus (DE3)-RIL, purified (boiling, DEAE, Superdex 200, Mono Q)
B5: Ala1-Ala2 (2xThr) (domain or fragment, Dictyostelium discoideum)
chain: MLDEIKRQYADVVSSRDKSVEQLKTLQAKNEELRNTAEEAEGQLDRAERSKKKAEFDLEEAVKNLEEETAKKVKAEKAMKKAETDYRSTKSELDDAKNVSSEQYVQIKRLNEELSELRSVLEEADERCNSAIKAKKTAESALESLKDEIDAANNAKAKAERKSKELEVRVAELEESLEDKSGTVNVEFIRKKDAEIDDLRARLDRETESRIKSDEDKKNTRKQFADLEAKVEEAQREVVTIDRLKKKLESDIIDLSTQLDTETKSRIKIEKSKKKLEQTLAERRAAEEGSSKAADEEIRKQVWQEVDELRAQLDSERAALNASEKKIKSLVAEVDEVKEQLEDEILAKDKLVKAKRALEVELEEVRDQLEEEEDSRSELEDSKRRLTTEVEDIKKKYDAEVEQNTKLDEAKKKLTDDVDTLKKQLEDEKKKLNESERAKKRLESENEDFLAKLDAEVKNRSRAEKDRKKYEKDLKDTKYKLNDEAATKTQTEIGAAKLEDQIDELRSKLEQEQAKATQADKSKKTLEGEIDNLRAQIEDEGKIKMRLEKEKRALEGELEELRETVEEAEDSKSEAEQSKRLVELELEDARRNLQKEIDAKEIAEDAKSNLQREIVEAKGR
notes: N-terminal methionine added before the myosin residues; Dictyostelium myosin-II heavy chain, a.a; 1,348-1,966 (Ala 1 through Ala 2); also called headless Ala1-Ala2 (2xThr); source: E. coli BL21-CodonPlus (DE3)-RIL, purified (boiling, DEAE, Superdex 200, Mono Q)
B6: AD-Cterm (3xAsp) myosin-II tail fragment (domain or fragment, Dictyostelium discoideum)
chain: MNVEFIRKKDAEIDDLRARLDRETESRIKSDEDKKNTRKQFADLEAKVEEAQREVVTIDRLKKKLESDIIDLSTQLDTETKSRIKIEKSKKKLEQTLAERRAAEEGSSKAADEEIRKQVWQEVDELRAQLDSERAALNASEKKIKSLVAEVDEVKEQLEDEILAKDKLVKAKRALEVELEEVRDQLEEEEDSRSELEDSKRRLTTEVEDIKKKYDAEVEQNTKLDEAKKKLTDDVDTLKKQLEDEKKKLNESERAKKRLESENEDFLAKLDAEVKNRSRAEKDRKKYEKDLKDDKYKLNDEAADKTQTEIGAAKLEDQIDELRSKLEQEQAKATQADKSKKTLEGEIDNLRAQIEDEGKIKMRLEKEKRALEGELEELRETVEEAEDSKSEAEQSKRLVELELEDARRNLQKEIDAKEIAEDAKSNLQREIVEAKGRLEEESIARTNSDRSRKRLEAEIDALTAQVDAEQKAKNQQIKENKKIETELKEYRKKFGESEKDKTKEFLVVEKLETDYKRAKKEAADEQQQRLTVENDLRKHLSEISLLKDAIDKLQRDHDKTKRELETETASKIEMQRKMADFFGGFKA
notes: N-terminal methionine added before the myosin residues; Dictyostelium myosin-II heavy chain, a.a; 1,531-2,116, aspartic acids in place of the three threonine phosphorylation sites; Phosphomimetic; also called headless AD-Cterm (3xAsp); 3xAsp tail fragment; source: E. coli BL21-CodonPlus (DE3)-RIL, purified (boiling, DEAE, Superdex 200, Mono Q)
B7: AD-Cterm (3xThr) myosin-II tail fragment (domain or fragment, Dictyostelium discoideum)
chain: MNVEFIRKKDAEIDDLRARLDRETESRIKSDEDKKNTRKQFADLEAKVEEAQREVVTIDRLKKKLESDIIDLSTQLDTETKSRIKIEKSKKKLEQTLAERRAAEEGSSKAADEEIRKQVWQEVDELRAQLDSERAALNASEKKIKSLVAEVDEVKEQLEDEILAKDKLVKAKRALEVELEEVRDQLEEEEDSRSELEDSKRRLTTEVEDIKKKYDAEVEQNTKLDEAKKKLTDDVDTLKKQLEDEKKKLNESERAKKRLESENEDFLAKLDAEVKNRSRAEKDRKKYEKDLKDTKYKLNDEAATKTQTEIGAAKLEDQIDELRSKLEQEQAKATQADKSKKTLEGEIDNLRAQIEDEGKIKMRLEKEKRALEGELEELRETVEEAEDSKSEAEQSKRLVELELEDARRNLQKEIDAKEIAEDAKSNLQREIVEAKGRLEEESIARTNSDRSRKRLEAEIDALTAQVDAEQKAKNQQIKENKKIETELKEYRKKFGESEKTKTKEFLVVEKLETDYKRAKKEAADEQQQRLTVENDLRKHLSEISLLKDAIDKLQRDHDKTKRELETETASKIEMQRKMADFFGGFKA
notes: N-terminal methionine added before the myosin residues; Dictyostelium myosin-II heavy chain, a.a; 1,531-2,116 (assembly domain through C terminus); the assembly rows are about coiled coils joining into paracrystals; also called headless AD-Cterm (3xThr); wild-type tail fragment; source: E. coli BL21-CodonPlus (DE3)-RIL, purified (boiling, DEAE, Superdex 200, Mono Q)
B8: AD (1xThr) myosin-II assembly domain (domain or fragment, Dictyostelium discoideum)
chain: MNVEFIRKKDAEIDDLRARLDRETESRIKSDEDKKNTRKQFADLEAKVEEAQREVVTIDRLKKKLESDIIDLSTQLDTETKSRIKIEKSKKKLEQTLAERRAAEEGSSKAADEEIRKQVWQEVDELRAQLDSERAALNASEKKIKSLVAEVDEVKEQLEDEILAKDKLVKAKRALEVELEEVRDQLEEEEDSRSELEDSKRRLTTEVEDIKKKYDAEVEQNTKLDEAKKKLTDDVDTLKKQLEDEKKKLNESERAKKRLESENEDFLAKLDAEVKNRSRAEKDRKKYEKDLKDTK
notes: N-terminal methionine added before the myosin residues; Dictyostelium myosin-II heavy chain, assembly domain, a.a; 1,531-1,824; also called headless AD (1xThr); 34-kDa assembly domain; source: E. coli BL21-CodonPlus (DE3)-RIL, purified (boiling, DEAE, Superdex 200, Mono Q)
B9: AD (1xAsp) myosin-II assembly domain (domain or fragment, Dictyostelium discoideum)
chain: MNVEFIRKKDAEIDDLRARLDRETESRIKSDEDKKNTRKQFADLEAKVEEAQREVVTIDRLKKKLESDIIDLSTQLDTETKSRIKIEKSKKKLEQTLAERRAAEEGSSKAADEEIRKQVWQEVDELRAQLDSERAALNASEKKIKSLVAEVDEVKEQLEDEILAKDKLVKAKRALEVELEEVRDQLEEEEDSRSELEDSKRRLTTEVEDIKKKYDAEVEQNTKLDEAKKKLTDDVDTLKKQLEDEKKKLNESERAKKRLESENEDFLAKLDAEVKNRSRAEKDRKKYEKDLKDDK
notes: N-terminal methionine added before the myosin residues; Dictyostelium myosin-II heavy chain, assembly domain, a.a; 1,531-1,824; also called headless AD (1xAsp); source: E. coli BL21-CodonPlus (DE3)-RIL, purified (boiling, DEAE, Superdex 200, Mono Q)

What was measured:
[1] = molecular target: the molecule itself; test: sedimentation assembly assay; self-assembly into filaments or paracrystals; 10 uM protein added to an equal volume, 10 mM imidazole pH 7.5, 0.1 mM EDTA, 1 mM DTT, 0-250 mM NaCl, on ice at least 30 min, 132,000 x g 15 min 4 °C; supernatant and pellet by SDS-PAGE
[2] = molecular target: P08799; test: as above; details: other: sedimentation assembly assay
[3] = molecular target: the molecule itself; test: AUC; sedimentation equilibrium; step: single chains to two-stranded coiled coil; 10.5-52 uM protein, 10 mM Tris pH 7.4, 0.1 mM EDTA, 500 mM NaCl, 10 °C, 10,000 rpm; fit to a single non-associating ideal species

Row | Protein | binding result [1] | further results
1 | B1 | binds | –
2 | B2 | binds | –
3 | B3 | – | fold difference in solubility against extended AD (2xThr) [2]: extended AD (2xThr) and extended AD (2xAsp) show a four-fold difference in solubility
4 | B4 | binds | –
5 | B5 | binds | –
6 | B6 | – | fold difference in solubility against AD-Cterm (3xThr) [2]: eight-fold difference in solubility of full-length unphosphorylated and phosphorylated myosin, respectively, and AD-Cterm (3xThr) and AD-Cterm (3xAsp), respectively; stoichiometry N [3]: 2
7 | B7 | – | stoichiometry N [3]: 2
8 | B8 | binds | –
9 | B9 | binds | –
